The results in this text go back to the supplement of paper PMC5998384.

Data set [1] concerns HeLa Kyoto. The data set is described as follows: melting temperature (median over replicates), in situ; higher = more thermally stable.
Data set [2] concerns HeLa Kyoto. The experiment in a line: solubility in G1/S (NP-40 vs SDS abundance) (log2 ratio); higher = more soluble. Particulars: cell cycle stage: G1/S.
For data set [3], the system named is HeLa Kyoto. The experiment in a line: thermal stability score vs G1/S (z-score of summed log2 fold changes over temperatures); higher = more thermally stable than in G1/S.
Data set [4] has as its system HeLa Kyoto. The data set is described as follows: solubility change mitosis vs G1/S (difference of NP-40 vs SDS log2 ratios) (log2 ratio difference); higher = more soluble in mitosis.
The mark [5] stands for this setting: cell cycle stage: early G1 (4.5 h after nocodazole release).
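For melting temperature (median over replicates), in situ in this document: HeLa Kyoto cells synchronized by double thymidine or nocodazole block, proteins quantified by TMT10plex mass spectrometry, three independent biological replicates.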
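For solubility change mitosis vs G1/S (difference of NP-40 vs SDS log2 ratios) in this document: synchronized HeLa Kyoto cells (double thymidine block for G1/S, nocodazole release for mitosis), protein amounts in NP-40 versus SDS lysates quantified by mass spectrometry, three biological replicates.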
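For solubility in G1/S (NP-40 vs SDS abundance) in this document: HeLa Kyoto cells arrested at G1/S by double thymidine block, proteins quantified by TMT10plex mass spectrometry in mild NP-40 versus SDS extracts, three biological replicates.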
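For thermal stability score vs G1/S (z-score of summed log2 fold changes over temperatures) in this document: synchronized HeLa Kyoto cells, proteins quantified by TMT10plex mass spectrometry, three biological replicates, mitosis taken 0.5 h after nocodazole release, G1/S directly after double thymidine block.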

With “MAECGASGSGSSGDSLDKSITLPPDEIFRNLENAKRFAIDIGGSLTKLAYYSTVQHKVAKVRSFDHSGKDTEREHEPPYEISVQEEITARLHFIKFENTYIEACLDFIKDHLVNTETKVIQATGGGAYKFKDLIEEKLRLKVDKEDVMTCLIKGCNFVLKNIPHEAFVYQKDSDPEFRFQTNHPHIFPYLLVNIGSGVSIVKVETEDRFEWVGGSSIGGGTFWGLGALLTKTKKFDELLHLASRGQHSNVDMLVRDVYGGAHQTLGLSGNLIASSFGKSATADQEFSKEDMAKSLLHMISNDIGQLACLHARLHSLDRVYFGGFFIRGHPVTMRTITYSINFFSKGEVQALFLRHEGYLGAIGAFLKGAEQDNPNQYSWGENYAGSSGLMSASPELGPAQRARSGTFDLLEMDRLERPLVDLPLLLDPPSYVPDTVDLTDDALARKYWLTCFEEALDGVVKRAVASQPDSVDAAERAEKFRQKYWNKLQTLRQQPFAYGTLTVRSLLDTREHCLNEFNFPDPYSKVKQRENGVALRCFPGVVRSLDALGWEERQLALVKGLLAGNVFDWGAKAVSAVLESDPYFGFEEAKRKLQERPWLVDSYSEWLQRLKGPPHKCALIFADNSGIDIILGVFPFVRELLLRGTEVILACNSGPALNDVTHSESLIVAERIAGMDPVVHSALQEERLLLVQTGSSSPCLDLSRLDKGLAALVRERGADLVVIEGMGRAVHTNYHAALRCESLKLAVIKNAWLAERLGGRLFSVIFKYEVPAE [PANK4]”, the melting temperature with HeLa Kyoto [1] (cell cycle stage: G1/S) worked out at 52 °C; in the data set on HeLa Kyoto [1] (cell cycle stage: mitosis), 51.7 °C. For the same sequence, the “solubility in G1/S (log2)” value in the data set with HeLa Kyoto [2] was -0.125. For the same sequence, the thermal stability score is 0.0566 with HeLa Kyoto [3] (setting [5]) and -0.284 in the data set on HeLa Kyoto [3] (cell cycle stage: mitosis). Besides, in the data set on HeLa Kyoto [4], the “solubility change mitosis (log2)” value was -0.0425.
Regarding “MAEEEVAKLEKHLMLLRQEYVKLQKKLAETEKRCALLAAQANKESSSESFISRLLAIVADLYEQEQYSDLKIKVGDRHISAHKFVLAARSDSWSLANLSSTKELDLSDANPEVTMTMLRWIYTDELEFREDDVFLTELMKLANRFQLQLLRERCEKGVMSLVNVRNCIRFYQTAEELNASTLMNYCAEIIASHWDDLRKEDFSSMSAQLLYKMIKSKTEYPLHKAIKVEREDVVFLYLIEMDSQLPGKLNEADHNGDLALDLALSRRLESIATTLVSHKADVDMVDKSGWSLLHKGIQRGDLFAATFLIKNGAFVNAATLGAQETPLHLVALYSSKKHSADVMSEMAQIAEALLQAGANPNMQDSKGRTPLHVSIMAGNEYVFSQLLQCKQLDLELKDHEGSTALWLAVQHITVSSDQSVNPFEDVPVVNGTSFDENSFAARLIQRGSHTDAPDTATGNCLLQRAAGAGNEAAALFLATNGAHVNHRNKWGETPLHTACRHGLANLTAELLQQGANPNLQTEEALPLPKEAASLTSLADSVHLQTPLHMAIAYNHPDVVSVILEQKANALHATNNLQIIPDFSLKDSRDQTVLGLALWTGMHTIAAQLLGSGAAINDTMSDGQTLLHMAIQRQDSKSALFLLEHQADINVRTQDGETALQLAIRNQLPLVVDAICTRGADMSVPDEKGNPPLWLALANNLEDIASTLVRHGCDATCWGPGPGGCLQTLLHRAIDENNEPTACFLIRSGCDVNSPRQPGANGEGEEEARDGQTPLHLAASWGLEETVQCLLEFGANVNAQDAEGRTPIHVAISSQHGVIIQLLVSHPDIHLNVRDRQGLTPFACAMTFKNNKSAEAILKRESGAAEQVDNKGRNFLHVAVQNSDIESVLFLISVHANVNSRVQDASKLTPLHLAVQAGSEIIVRNLLLAGAKVNELTKHRQTALHLAAQQDLPTICSVLLENGVDFAAVDENGNNALHLAVMHGRLNNIRVLLTECTVDAEAFNLRGQSPLHILGQYGKENAAAIFDLFLECMPGYPLDKPDADGSTVLLLAYMKGNANLCRAIVRSGARLGVNNNQGVNIFNYQVATKQLLFRLLDMLSKEPPWCDGSYCYECTARFGVTTRKHHCRHCGRLLCHKCSTKEIPIIKFDLNKPVRVCNICFDVLTLGGVS [ANKFY1]”, the melting temperature with HeLa Kyoto [1] (cell cycle stage: G1/S) worked out at 48.8 °C; in the data set with HeLa Kyoto [1] (cell cycle stage: mitosis) it was 49.3 °C. Further, in the data set with HeLa Kyoto [2], the “solubility in G1/S (log2)” value was -0.0647. For the same sequence, the thermal stability score in the data set on HeLa Kyoto [3] (setting [5]) was determined as 0.358; in the data set with HeLa Kyoto [3] (cell cycle stage: mitosis) it was 1.34. Besides, in the data set on HeLa Kyoto [4], the “solubility change mitosis (log2)” value is -0.175.
For “MAEFTSYKETASSRHLRFKLQSLSRRLDELEEATKNLQKAEDELLDLQDKVIQAEGSNSSMLAEIEVLRQRVLRIEGKDEEIKRAEDLCRLMKEKLEEEENLTRELKSEIERLQKRMAELEKLEEAFSRSKNDCTQLCLSLNEERNLTKKISSELEMLRVKVKELESSEDRLDKTEQSLASELEKLKSLTLSFVSERKYLNEKEKENEKLIKELTQKLEQNKKMNRDYTRNASNLERNDLRIEDGISSTLPSKESRRKGGLDYLKQVENETRNKSENEKNRNQEDNKVKDLNQEIEKLKTQIKHFESLEEELKKMKSKNNDLQDNYLSEQNKNKLLASQLEEIKLQIKKQKELENGEVEGEDAFLSSKGRHERTKFRGHGSEASVSKHTARELSPQHKRERLRNREFALNNENYSLSNRQVSSPSFTNRRAAKASHMGVSTDSGTQETKKTEDRFVPGSSQSEGKKSREQPSVLSRYPPAAQEHSKAWKGTSKPGTESGLKGKVEKTTRTFSDTTHGSVPSDPLGRADKASDTSSETVFGKRGHVLGNGSQVTQAANSGCSKAIGALASSRRSSSEGLSKGKKAANGLEADNSCPNSKAPVLSKYPYSCRSQENILQGFSTSHKEGVNQPAAVVMEDSSPHEALRCRVIKSSGREKPDSDDDLDIASLVTAKLVNTTITPEPEPKPQPNSREKAKTRGAPRTSLFENDKDAGMENESVKSVRASTNTMELPDTNGAGVKSQRPFSPREALRSRAIIKPVIVDKDVKKIMGGSGTETTLEKQKPVSKPGPNKVTSSITIYPSDSSSPRAAPGEALRERHTSTSNIQVGLAELTSVSNHVSSPFELSIHKHDITLQLAEAERMADGPLKDRPETVVSRSSIIIKPSDPVERNSHAPPAETIRWKSHSAPSEVGFSDARHVTVRNAWKSRRDLKSLEDPPTRIGKNVESTNSNAYTQRSSTDFSELEQPRSCLFEQGTRRVGPSSGDAPEPSSRRTQSSLTVSEVLTRRNRVGDTITVAAWNHSASMEEEGEDCTLSVYRQLHNSLDPSELPGKQGLPESGRVRAEERLRPTRPCAEEN [LUZP1]”, the melting temperature with HeLa Kyoto [1] (cell cycle stage: G1/S) stood at 51.8 °C; in the data set with HeLa Kyoto [1] (cell cycle stage: mitosis), 52.3 °C. Further, in the data set on HeLa Kyoto [2], the “solubility in G1/S (log2)” value was -0.781. The values for the thermal stability score with HeLa Kyoto [3] (setting [5]) and with HeLa Kyoto [3] (cell cycle stage: mitosis) were 0.392 and 0.722, respectively. The “solubility change mitosis (log2)” value in the data set with HeLa Kyoto [4] came to 0.14.
